{"source": "patent US20240209044", "proteins": {"B1": {"name": "PKCtheta, HA-tagged, immunoprecipitated from HEK293T lysate (protein)", "chain": "MSPFLRIGLSNFDCGSCQSCQGEAVNPYCAVLVKEYVESENGQMYIQKKPTMYPPWDSTFDAHINKGRVMQIIVKGKNVDLISETTVELYSLAERCRKNNGKTEIWLELKPQGRMLMNARYFLEMSDTKDMNEFETEGFFALHQRRGAIKQAKVHHVKCHEFTATFFPQPTFCSVCHEFVWGLNKQGYQCRQCNAAIHKKCIDKVIAKCTGSAINSRETMFHKERFKIDMPHRFKVYNYKSPTFCEHCGTLLWGLARQGLKCDACGMNVHHRCQTKVANLCGINQKLMAEALAMIESTQQARCLRDTEQIFREGPVEIGLPCSIKNEARPPCLPTPGKREPQGISWESPLDEVDKMCHLPEPELNKERPSLQIKLKIEDFILHKMLGKGSFGKVFLAEFKKTNQFFAIKALKKDVVLMDDDVECTMVEKRVLSLAWEHPFLTHMFCTFQTKENLFFVMEYLNGGDLMYHIQSCHKFDLSRATFYAAEIILGLQFLHSKGIVYRDLKLDNILLDKDGHIKIADFGMCKENMLGDAKTNTFCGTPDYIAPEILLGQKYNHSVDWWSFGVLLYEMLIGQSPFHGQDEEELFHSIRMDNPFYPRWLEKEAKDLLVKLFVREPEKRLGVRGDIRQHPLFREINWEELERKEIDPPFRPKVKSPFDCSNFDKEFLNEKPRLSFADRALINSMDQNMFRNFSFMNPGMERLIS"}, "B2": {"name": "PKCepsilon, HA-tagged, immunoprecipitated from HEK293T lysate (protein)", "chain": "MVVFNGLLKIKICEAVSLKPTAWSLRHAVGPRPQTFLLDPYIALNVDDSRIGQTATKQKTNSPAWHDEFVTDVCNGRKIELAVFHDAPIGYDDFVANCTIQFEELLQNGSRHFEDWIDLEPEGRVYVIIDLSGSSGEAPKDNEERVFRERMRPRKRQGAVRRRVHQVNGHKFMATYLRQPTYCSHCRDFIWGVIGKQGYQCQVCTCVVHKRCHELIITKCAGLKKQETPDQVGSQRFSVNMPHKFGIHNYKVPTFCDHCGSLLWGLLRQGLQCKVCKMNVHRRCETNVAPNCGVDARGIAKVLADLGVTPDKITNSGQRRKKLIAGAESPQPASGSSPSEEDRSKSAPTSPCDQEIKELENNIRKALSFDNRGEEHRAASSPDGQLMSPGENGEVRQGQAKRLGLDEFNFIKVLGKGSFGKVMLAELKGKDEVYAVKVLKKDVILQDDDVDCTMTEKRILALARKHPYLTQLYCCFQTKDRLFFVMEYVNGGDLMFQIQRSRKFDEPRSRFYAAEVTSALMFLHQHGVIYRDLKLDNILLDAEGHCKLADFGMCKEGILNGVTTTTFCGTPDYIAPEILQELEYGPSVDWWALGVLMYEMMAGQPPFEADNEDDLFESILHDDVLYPVWLSKEAVSILKAFMTKNPHKRLGCVASQNGEDAIKQHPFFKEIDWVLLEQKKIKPPFKPRIKTKRDVNNFDQDFTREEPVLTLVDEAIVKQINQEEFKGFSYFGEDLMP"}, "B3": {"name": "PKCzeta, HA-tagged, immunoprecipitated from HEK293T lysate (protein)", "chain": "MPSRTGPKMEGSGGRVRLKAHYGGDIFITSVDAATTFEELCEEVRDMCRLHQQHPLTLKWVDSEGDPCTVSSQMELEEAFRLARQCRDEGLIIHVFPSTPEQPGLPCPGEDKSIYRRGARRWRKLYRANGHLFQAKRFNRRAYCGQCSERIWGLARQGYRCINCKLLVHKRCHGLVPLTCRKHMDSVMPSQEPPVDDKNEDADLPSEETDGIAYISSSRKHDSIKDDSEDLKPVIDGMDGIKISQGLGLQDFDLIRVIGRGSYAKVLLVRLKKNDQIYAMKVVKKELVHDDEDIDWVQTEKHVFEQASSNPFLVGLHSCFQTTSRLFLVIEYVNGGDLMFHMQRQRKLPEEHARFYAAEICIALNFLHERGIIYRDLKLDNVLLDADGHIKLTDYGMCKEGLGPGDTTSTFCGTPNYIAPEILRGEEYGFSVDWWALGVLMFEMMAGRSPFDIITDNPDMNTEDYLFQVILEKPIRIPRFLSVKASHVLKGFLNKDPKERLGCRPQTGFSDIKSHAFFRSIDWDLLEKKQALPPFQPQITDDYGLDNFDTQFTSEPVQLTPDDEDAIKRIDQSEFEGFEYINPLLLSTEESV"}}, "key": {"[1]": {"target": "T1, ZAP, zeta activating peptide, the PKCzeta uORF-encoded peptide", "T1 chain": "MGPREARLQVHQLQTAGP"}, "[2]": {"target": "T2, ZIP, zeta inhibitory peptide, the pseudo-substrate peptide of the PKCzeta regulatory domain", "T2 chain": "SIYRRGARRWRKL"}}}
{"protein": "B1", "values": [{"measurement": "phosphorylation of MBP by PKC isoforms (32P-γATP in vitro kinase assay)", "setting": "[1]", "result": "the peptide had no effect on the phosphorylation of MBP by the PKC isoforms PKCeta (PKCη), PKCtheta (PKCθ), PKCgamma (PKCγ), and PKCalpha (PKCα)"}]}
{"protein": "B2", "values": [{"measurement": "phosphorylation of MBP by PKC isoforms (32P-γATP in vitro kinase assay)", "setting": "[1]", "result": "enhanced the phosphorylation of PKC isoforms of the novel PKC sub-family of PKCzeta, PKCdelta and PKCepsilon"}]}
{"protein": "B3", "values": [{"measurement": "PKCzeta phosphorylation of MBP (32P-γATP in vitro kinase assay)", "setting": "[1]", "result": "did not inhibit PKCzeta phosphorylation of MBP, rather significantly increased the phosphorylation on MBP"}, {"measurement": "kinase activity (phosphorylation of MBP, 32P-γ-ATP in vitro kinase assay, dose series of peptide)", "setting": "[1]", "result": "the ZAP peptide activates the kinase activity of both PKCzeta and PKMzeta"}, {"measurement": "phosphorylation of MBP by PKC isoforms (32P-γATP in vitro kinase assay)", "setting": "[1]", "result": "enhanced the phosphorylation of PKC isoforms of the novel PKC sub-family of PKCzeta, PKCdelta and PKCepsilon"}, {"measurement": "kinase activity (phosphorylation of MBP, 32P-γ-ATP in vitro kinase assay, dose series of peptide)", "setting": "[2]", "result": "the known PS ZIP peptide inhibits their activity"}]}
